Data from PMC6547453.

How the values were obtained:
[1] = biological target: RspWYL1 double mutant Y386A/N387A (Ruminococcus sp.); test: SEC; Superdex 200 gel filtration column, compared with a protein molecular mass standard mixture
[2] = biological target: full-length RspWYL1 (Ruminococcus sp. WYL1, amino acids 1–392) (Ruminococcus sp.); test: SEC-MALS; HPLC SEC-MALS, AdvanceBio SEC 300A column, 50 mM Tris-HCl pH 7.5, 150 mM NaCl, 1 mM TCEP; RspWYL1 loaded at 10 mg/ml
[3] = biological target: full-length RspWYL1 (Ruminococcus sp. WYL1, amino acids 1–392) (Ruminococcus sp.); test: SEC; Superdex 200 gel filtration column, compared with a protein molecular mass standard mixture
[4] = biological target: RspWYL1 double mutant I108D/I109D (Ruminococcus sp.); test: as above

RspWYL1 double mutant Y386A/N387A (natural protein)
stoichiometry N [1]: 2

full-length RspWYL1 (Ruminococcus sp. WYL1, amino acids 1–392) (natural protein)
stoichiometry N [2]: 2
stoichiometry N [3]: 2

RspWYL1 double mutant I108D/I109D (natural protein)
stoichiometry N [4]: 2
